The source of these data is US20040224408A1, “THAP proteins as nuclear receptors for chemokines and roles in transcriptional regulation, cell proliferation and cell differentiation” (published 2004).

For assay [1], the target named is T1, human THAP1 (THanatos (death)-Associated Protein-1), full length (human, UniProt Q9NVV9 1-213).
T1 construct: also called hTHAP1; FLJ10477
T1 sequence: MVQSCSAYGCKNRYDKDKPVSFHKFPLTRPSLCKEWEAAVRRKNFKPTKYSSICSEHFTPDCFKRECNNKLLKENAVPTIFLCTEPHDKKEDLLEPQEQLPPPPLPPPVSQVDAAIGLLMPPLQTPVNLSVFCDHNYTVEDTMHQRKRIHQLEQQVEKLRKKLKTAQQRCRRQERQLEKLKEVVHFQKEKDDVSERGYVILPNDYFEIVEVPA
The experiment in a line: yeast two-hybrid, pGADT7-THAP1 with pGBKT7-IFNγ.
From the text: […]

Assay [2] concerns the target T2, GST-THAP1 fusion protein (pGEX-2T-THAP1) (human, UniProt Q5RCE4 1-213 (Pongo abelii entry)).
T2 construct: Expressed in E. coli DH5alpha and immobilized on glutathione sepharose; also called GST-THAP1 wild-type; not shown: Glutathione S-transferase (GST) encoded by the pGEX-2T prokaryotic expression vector (Amersham Pharmacia Biotech); N-ter
T2 sequence: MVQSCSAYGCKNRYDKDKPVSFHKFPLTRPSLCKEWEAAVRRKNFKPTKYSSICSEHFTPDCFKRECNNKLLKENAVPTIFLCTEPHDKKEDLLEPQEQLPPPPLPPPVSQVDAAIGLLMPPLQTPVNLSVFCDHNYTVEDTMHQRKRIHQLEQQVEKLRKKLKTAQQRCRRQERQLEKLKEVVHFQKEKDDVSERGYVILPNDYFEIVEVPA
The experiment in a line: GST pull-down, immobilized GST-THAP1, in vitro translated 35S-labelled IFNγ. On the procedure: To confirm the interaction observed in yeast two-hybrid system, we performed in vitro GST pull down assays. THAP1, expressed as a GST-tagged fusion protein and immobilized on glutathione sepharose, was incubated with radiolabeled chemokines that were translated in vitro.
In vitro-translated chemokines were generated with the TNT-coupled reticulocyte lysate system (Promega, Madison, Wis., USA) using as templates pGBKT7-CCL21, -CCL19, -CXCL9, -CXCL10 and CXCL11 chemokine vectors (see Example 32) or pCMV-SPORT6-CCL5 plasmid (Image clone No. 4185200). In vitro-translated IFNγ cytokine was generated similarly using as template plasmid pGBKT7-IFNγ. A 25 μvolume of ³⁵S-labelled chemokine was incubated with immobilized GST-THAP1 or GST proteins overnight at 4° C., in the following binding buffer: 10 mM NaPO4 pH 8.0, 140 mM NaCl, 3 mM MgCl₂, 1 mM dithiothreitol (DTT), 0.05% NP40, and 0.2 mM phenylmethyl sulphonyl fluoride (PMSF), 1 mM Na vanadate, 50 mM β-glycerophosphate, 25 μg/ml chymotrypsine, 5 μg/ml aprotinin, and 10 μg/ml leupeptin. Beads were then washed 5 times in 1 ml binding buffer. Bound proteins were eluted with 2×Laemmli SDS-PAGE sample buffer, fractionated by 10% SDS-PAGE and visualized by fluorography using Amplify (Amersham Pharmacia Biotech). GST/THAP1 specifically bound to chemokines CCL21, CCL19, CCL5, CXCL9, CXCL10 and CXCL11 but not cytokine IFNγ (FIGS. 19 and 20). […]

For assay [3], the target named is T3, Glutathione S-transferase (GST) control protein (pGEX-2T) (UniProt P08515 1-218 = GST).
T3 construct: Negative control immobilized on glutathione sepharose; also called GST beads; immobilized GST alone
The experiment in a line: GST pull-down, immobilized GST control, in vitro translated 35S-labelled IFNγ. On the procedure: In vitro-translated chemokines were generated with the TNT-coupled reticulocyte lysate system (Promega, Madison, Wis., USA) using as templates pGBKT7-CCL21, -CCL19, -CXCL9, -CXCL10 and CXCL11 chemokine vectors (see Example 32) or pCMV-SPORT6-CCL5 plasmid (Image clone No. 4185200). In vitro-translated IFNγ cytokine was generated similarly using as template plasmid pGBKT7-IFNγ. A 25 μvolume of ³⁵S-labelled chemokine was incubated with immobilized GST-THAP1 or GST proteins overnight at 4° C., in the following binding buffer: 10 mM NaPO4 pH 8.0, 140 mM NaCl, 3 mM MgCl₂, 1 mM dithiothreitol (DTT), 0.05% NP40, and 0.2 mM phenylmethyl sulphonyl fluoride (PMSF), 1 mM Na vanadate, 50 mM β-glycerophosphate, 25 μg/ml chymotrypsine, 5 μg/ml aprotinin, and 10 μg/ml leupeptin. Beads were then washed 5 times in 1 ml binding buffer. Bound proteins were eluted with 2×Laemmli SDS-PAGE sample buffer, fractionated by 10% SDS-PAGE and visualized by fluorography using Amplify (Amersham Pharmacia Biotech). GST/THAP1 specifically bound to chemokines CCL21, CCL19, CCL5, CXCL9, CXCL10 and CXCL11 but not cytokine IFNγ (FIGS. 19 and 20). […] CXCL10 also bound to immobilized GST-THAP1 (indicated by ++ in the column labelled “In vitro binding to GST-THAP1”).

In assay [4] the target is T4, THAP1-N1 deletion mutant (amino acids 1-90) (human, UniProt Q9NVV9 1-90).
T4 construct: Tested as a Gal4-BD or Gal4-AD fusion, as in vitro translated 35S-labelled protein and as an EGFP fusion
T4 sequence: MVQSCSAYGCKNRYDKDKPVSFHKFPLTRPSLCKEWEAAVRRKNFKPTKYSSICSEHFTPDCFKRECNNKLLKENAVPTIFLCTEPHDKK
As to the kind of experiment: yeast two-hybrid, pGBKT7-THAP1 mutant with pGADT7-Par4DD. On the procedure: (§1) Two-hybrid interaction between THAP1 mutants and Par4DD was tested by cotransformation of AH109 with pGBKT7-THAP1-C1, -C2, -C3, -N1, -N2 or -N3 and pGADT7-Par4DD and selection of transformants by His and Ade double auxotrophy according to manufacturer's instructions ([…] two-hybrid system 3, Clontech).

Assay [5] concerns the target T5, THAP1-C3 deletion mutant (amino acids 143-213) (human, UniProt Q9NVV9 143-213).
T5 construct: Tested as a Gal4-BD or Gal4-AD fusion, as in vitro translated 35S-labelled protein and as an EGFP fusion
T5 sequence: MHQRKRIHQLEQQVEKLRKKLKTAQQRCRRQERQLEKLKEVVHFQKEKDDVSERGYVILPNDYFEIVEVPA
The assay is described as above. The protocol:
as §1

Assay [6] has as its target T6, THAP1-N3 deletion mutant (amino acids 1-192) (human, UniProt Q9NVV9 1-192).
T6 construct: Tested as a Gal4-BD or Gal4-AD fusion, as in vitro translated 35S-labelled protein and as an EGFP fusion
T6 sequence: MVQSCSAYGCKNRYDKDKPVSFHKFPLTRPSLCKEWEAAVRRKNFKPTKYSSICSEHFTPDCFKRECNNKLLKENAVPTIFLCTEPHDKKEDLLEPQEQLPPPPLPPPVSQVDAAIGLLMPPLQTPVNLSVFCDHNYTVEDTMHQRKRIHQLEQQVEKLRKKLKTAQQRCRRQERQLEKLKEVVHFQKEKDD
The assay is described as above. On the procedure:
as §1

Assay [7] deals with T7, THAP1-C1 deletion mutant (amino acids 90-213) (human, UniProt Q9NVV9 90-213).
T7 construct: Tested as a Gal4-BD or Gal4-AD fusion, as in vitro translated 35S-labelled protein and as an EGFP fusion; also called THAP1ΔTHAP; THAP1?THAP
T7 sequence: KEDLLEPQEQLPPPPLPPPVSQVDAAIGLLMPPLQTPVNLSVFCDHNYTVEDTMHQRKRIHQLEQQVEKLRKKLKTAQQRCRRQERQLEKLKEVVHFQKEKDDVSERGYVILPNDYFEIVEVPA
Described as above. On the procedure: as §1

Assay [8] has as its target T8, THAP1-N2 deletion mutant (amino acids 1-166) (human, UniProt Q9NVV9 1-166).
T8 construct: Tested as a Gal4-BD or Gal4-AD fusion, as in vitro translated 35S-labelled protein and as an EGFP fusion
T8 sequence: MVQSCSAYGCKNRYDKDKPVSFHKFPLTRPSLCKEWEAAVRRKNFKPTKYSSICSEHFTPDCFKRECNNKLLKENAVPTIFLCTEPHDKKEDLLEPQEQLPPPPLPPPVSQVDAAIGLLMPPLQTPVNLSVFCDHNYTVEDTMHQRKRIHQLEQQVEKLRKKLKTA
The description is as above. On the procedure: as §1

For assay [9], the target named is T9, THAP1-C2 deletion mutant (amino acids 120-213) (human, UniProt Q9NVV9 120-213).
T9 construct: Tested as a Gal4-BD or Gal4-AD fusion, as in vitro translated 35S-labelled protein and as an EGFP fusion
T9 sequence: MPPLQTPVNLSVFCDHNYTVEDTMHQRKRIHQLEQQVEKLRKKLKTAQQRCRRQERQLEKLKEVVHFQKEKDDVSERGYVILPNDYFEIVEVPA
The description is as above. On the procedure: as §1

Assay [10] concerns the target T1, human THAP1 (THanatos …). As to the kind of experiment: yeast two-hybrid, both orientations (His/Ade selection). An excerpt: We then examined whether the leucine zipper/death domain at the C-terminus of Par4, previously shown to be involved in Par4 binding to WT-1 and aPKC, was required for the interaction between THAP1 and Par4. Two Par4 mutants were constructed for that purpose, Par4A and Par4DD. Par4A lacks the leucine zipper/death domain while Par4DD contains this domain. pGBKT7-Par4A(amino acids 1-276) and pGADT7-Par4A. were constructed by sub-cloning a EcoRI-BglII fragment from pGADT7-Par4 into the EcoRI and BamHI sites of pGBKT7 and pGADT7. Par4DD (amino acids 250-342) was amplified by PCR, using pGBKT7-Par4 as template, with primers Par4.4 (5′-[…]-3′) (SEQ ID NO: 193) and Par4.5, and cloned into the EcoRI and BamHI sites of pGBKT7 and pGADT7 to obtain pGBKT7-Par4DD and pGADT7-Par4DD. Two-hybrid interaction between THAP1 and Par4 mutants was tested by cotransformation of AH109 with pGBKT7-THAP1 and pGADT7-Par4A or pGADT7-Par4DD and selection of transformants by His and Ade double auxotrophy according to manufacturer's instructions ([…] two-hybrid system 3, Clontech). […] Similar results were obtained when two-hybrid experiments were performed in the opposite orientation using Par4 or Par4 mutants (Par4A and Par4DD) as baits instead of THAP1 (FIG. 3A).

Assay [11] addresses T10, THAP1ΔQRCRR mutant (deletion of residues 168-172) (human, UniProt Q9NVV9 1-213).
T10 construct: Tested as a Gal4-BD fusion (pGBKT7), as in vitro translated protein and as an EGFP fusion; also called THAP1?QRCRR; THAP1?(QRCRR)
T10 sequence: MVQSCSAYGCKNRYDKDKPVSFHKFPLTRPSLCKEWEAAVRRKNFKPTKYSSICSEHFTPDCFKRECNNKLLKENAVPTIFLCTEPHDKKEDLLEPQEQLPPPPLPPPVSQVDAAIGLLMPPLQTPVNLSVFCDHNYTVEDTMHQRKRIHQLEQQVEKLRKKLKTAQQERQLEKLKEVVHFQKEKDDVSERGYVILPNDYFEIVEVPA
The experiment in a line: yeast two-hybrid. The protocol: as §1
for mutant THAP1ΔQRCRR. The resulting PCR fragments were digested with EcoRI and BamHI, and cloned in frame downstream of the Gal4 Binding Domain (Gal4-BD) in pGBKT7 two-hybrid vector (Clontech) to generate pGBKT7-THAP1-RR/AA and −Δ(QRCRR), or downstream of the Enhanced Green Fluorescent Protein (EGFP) ORF in pEGFP.C2 vector (Clontech) to generate pEGFP.C2-THAP1-RR/AA and −Δ(QRCRR). THAP1 RR/AA and THAP1ΔQRCRR THAP1 mutants were then tested in the three THAP1/Par4 interaction assays (two-hybrid assay, in vitro THAP1/Par4 interaction assay, in vivo THAP1/Par4 interaction assay) as described above for the THAP1-C1, -C2, -C3, -N1, -N2 or -N3 mutants.

T3 sequence (P08515 whole entry): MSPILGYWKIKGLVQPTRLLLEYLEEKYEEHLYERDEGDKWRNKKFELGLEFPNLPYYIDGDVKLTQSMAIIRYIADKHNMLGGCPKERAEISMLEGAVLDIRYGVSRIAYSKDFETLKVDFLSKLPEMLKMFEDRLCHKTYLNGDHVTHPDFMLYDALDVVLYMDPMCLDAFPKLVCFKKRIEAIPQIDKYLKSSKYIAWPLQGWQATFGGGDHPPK

B1: human cytokine IFNγ (amino acids 21-166) (ligand)
chain: CYCQDPYVKEAENLKKYFNAGHSDVADNGTLFLGILKNWKEESDRKIMQSQIVSFYFKLFKNFKDDQSIQKSVETIKEDMNVKFFNSNKKKRDDFEKLTNYSVTDLNVQRKAIHELIQVMAELSPAAKTGKRKRSQMLFQGRRASQ
notes: Negative control; The range is stated on the GenBank entry; Tested as a Gal4-BD fusion (pGBKT7-IFNγ) and as in vitro translated 35S-labelled protein from that vector; also called interferon gamma; hIFNγ
As for B1, the binding result in assay [1], in [2] and in assay [3] was “no binding” in each case.

B2: Par4 leucine zipper/death domain (Par4DD, amino acids 250-342) (other)
chain: GFPRYNRDANVSGTLVSSSTLEKKIEDLEKEVVTERQENLRLVRLMQDKEEMIGKLKEEIDLLNRDLDDIEDENEQLKQENKTLLKVVGQLTR
notes: also called myc-Par4DD; mycPar4DD
As to B2, the binding result in [4] is reported as “no binding”; in assay [5], “binds”; in assay [6], “binds”; in assay [7], “binds”; in assay [8], “no binding”; in assay [9], “binds”. Moreover, the binding result was “binds” in assay [10] and “no binding” in assay [11].
